To fix the notation:
B1: C8orf76 (parent)
chain: KLAEAYLNLGPALSAALASSQKQH

The values below come from the supplement of paper PMC10567573.
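Note: lentivirally expressed fusions sorted by FACS into six bins by GFP to DsRed ratio, PSI derived from sequencing read proportions per bin multiplied by bin number.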

The series covers variants of B1. The series can be described thus: protein stability index of a GFP-peptide fusion (GPS, HEK-293T) (PSI 1-6); higher = more stable. Conditions: c terminus: a fixed tail appended.
For KLAEAYLNLGPALSAWLASSQKQH [A16W], the protein stability index was found to be 1.09. In the case of KLAEAYLNLGPALSADLASSQKQH [A16D] it was 2.18; in that of KLAEAYLNLGPALSASLASSQKQH [A16S], 2.41; in that of KLAEAYLNLGPALSAKLASSQKQH [A16K], 1.97. In the case of KLAEAYLNLGPALSAVLASSQKQH [A16V] it was 2.05; in that of KLAEAYLNLGPALSAFLASSQKQH [A16F], 3.07. Take KLAEAYLNLGPALSARLASSQKQH [A16R]: the protein stability index is 2.43. In the case of KLAEAYLNLGPALSAHLASSQKQH [A16H] it was 2.86; in that of KLAEAYLNLGPALSAYLASSQKQH [A16Y], 2.95; in that of KLAEAYLNLGPALSAELASSQKQH [A16E], 1.82.

In the case of KLAEAYLNLGPALSANLASSQKQH [A16N], the protein stability index came out at 1.95.

With KLAEAYLNLGPALSAQLASSQKQH [A16Q], the protein stability index was found to be 2.38. The figure for KLAEAYLNLGPALSAGLASSQKQH [A16G] is 2.4; for KLAEAYLNLGPALSATLASSQKQH [A16T] it is 2.12; for KLAEAYLNLGPALSAILASSQKQH [A16I] it is 4.08. As for KLAEAYLNLGPALSAPLASSQKQH [A16P], the protein stability index was determined as 2.39. In the case of KLAEAYLNLGPALSALLASSQKQH [A16L] it was 3.68; in that of KLAEAYLNLGPALSAALFSSQKQH [A18F], 3; in that of KLAEAYLNLGPALSAALLSSQKQH [A18L], 3.18. In the case of KLAEAYLNLGPALSAALYSSQKQH [A18Y], the protein stability index was determined as 2.37. The figure for KLAEAYLNLGPALSAALDSSQKQH [A18D] is 2.22; for KLAEAYLNLGPALSAALGSSQKQH [A18G] it is 2.29.

Consider KLAEAYLNLGPALSAALNSSQKQH [A18N], for which the protein stability index worked out at 1.19. As for KLAEAYLNLGPALSAALTSSQKQH [A18T], the protein stability index was 1.52. In the case of KLAEAYLNLGPALSAALRSSQKQH [A18R] it was 2.67. Consider KLAEAYLNLGPALSAALVSSQKQH [A18V], for which the protein stability index came out at 2.36.

As for KLAEAYLNLGPALSAALCSSQKQH [A18C], the protein stability index came to 1.6. The figure for KLAEAYLNLGPALSAALHSSQKQH [A18H] is 2.73. The figure for KLAEAYLNLGPALSAALMSSQKQH [A18M] is 3.46; for KLAEAYLNLGPALSAALPSSQKQH [A18P] it is 2.04; for KLAEAYLNLGPALSAALESSQKQH [A18E] it is 1.95. For KLAEAYLNLGPALSAALISSQKQH [A18I], the protein stability index amounted to 2.4. Consider KLAEAYLNLGPALSAALQSSQKQH [A18Q], for which the protein stability index turned out to be 1.9. In the case of KLAEAYLNLGPALSAALSSSQKQH [A18S] it was 1.99; in that of KLAEAYLNLGPALSAALKSSQKQH [A18K], 2.02; in that of KLAEAYLNLGPALSAALASKQKQH [S20K], 1.6.

In the case of KLAEAYLNLGPALSAALASVQKQH [S20V], the protein stability index was 3.17. The figure for KLAEAYLNLGPALSAALASAQKQH [S20A] is 3.74. In the case of KLAEAYLNLGPALSAALASHQKQH [S20H] it was 3.47; in that of KLAEAYLNLGPALSAALASDQKQH [S20D], 1.48; in that of KLAEAYLNLGPALSAALASTQKQH [S20T], 1.9. Regarding KLAEAYLNLGPALSAALASNQKQH [S20N], the protein stability index is 2.26. On to KLAEAYLNLGPALSAALASWQKQH [S20W], for which the protein stability index came to 3.33.

Turning to KLAEAYLNLGPALSAALASYQKQH [S20Y], the protein stability index is 2.2. The figure for KLAEAYLNLGPALSAALASGQKQH [S20G] is 2.46. The figure for KLAEAYLNLGPALSAALASMQKQH [S20M] is 2.44. As to KLAEAYLNLGPALSAALASCQKQH [S20C], the protein stability index came to 3.5. The figure for KLAEAYLNLGPALSAALASRQKQH [S20R] is 2.13; for KLAEAYLNLGPALSAALASIQKQH [S20I] it is 4.43; for KLAEAYLNLGPALSAALASPQKQH [S20P] it is 2.23. The figure for KLAEAYLNLGPALSAALASLQKQH [S20L] is 3.21; for KLAEAYLNLGPALSAALASEQKQH [S20E] it is 1.3; for KLAEAYLNLGPALSAALASSYKQH [Q21Y] it is 4.14. In the case of KLAEAYLNLGPALSAALASSSKQH [Q21S] it was 2.38; in that of KLAEAYLNLGPALSAALASSNKQH [Q21N], 3.31; in that of KLAEAYLNLGPALSAALASSEKQH [Q21E], 1.78. Regarding KLAEAYLNLGPALSAALASSKKQH [Q21K], the protein stability index is 2.1.

In the case of KLAEAYLNLGPALSAALASSMKQH [Q21M], the protein stability index was found to be 3.44. As for KLAEAYLNLGPALSAALASSRKQH [Q21R], the protein stability index came out at 3.07. The figure for KLAEAYLNLGPALSAALASSVKQH [Q21V] is 2.99.

As for KLAEAYLNLGPALSAALASSHKQH [Q21H], the protein stability index was found to be 2.42. As for KLAEAYLNLGPALSAALASSIKQH [Q21I], the protein stability index is 2.71. The figure for KLAEAYLNLGPALSAALASSAKQH [Q21A] is 4.28; for KLAEAYLNLGPALSAALASSWKQH [Q21W] it is 2.31.

In the case of KLAEAYLNLGPALSAALASSPKQH [Q21P], the protein stability index was 2.18. The figure for KLAEAYLNLGPALSAALASSTKQH [Q21T] is 3.01. In the case of KLAEAYLNLGPALSAALASSFKQH [Q21F] it was 2.97; in that of KLAEAYLNLGPALSAALASSDKQH [Q21D], 1.97.

With KLAEAYLNLGPALSAALASSGKQH [Q21G], the protein stability index amounted to 3.38. The figure for KLAEAYLNLGPALSAALASSLKQH [Q21L] is 1.8; for KLAEAYLNLGPALSAALASSQKDH [Q23D] it is 1.97. The figure for KLAEAYLNLGPALSAALASSQKFH [Q23F] is 2.92; for KLAEAYLNLGPALSAALASSQKMH [Q23M] it is 2.85. In the case of KLAEAYLNLGPALSAALASSQKKH [Q23K] it was 2.07; in that of KLAEAYLNLGPALSAALASSQKNH [Q23N], 1.99; in that of KLAEAYLNLGPALSAALASSQKHH [Q23H], 2.74.

Regarding KLAEAYLNLGPALSAALASSQKEH [Q23E], the protein stability index was 3.74. In the case of KLAEAYLNLGPALSAALASSQKCH [Q23C] it was 2.22; in that of KLAEAYLNLGPALSAALASSQKLH [Q23L], 2.86. In the case of KLAEAYLNLGPALSAALASSQKIH [Q23I] it was 2.73. In the case of KLAEAYLNLGPALSAALASSQKPH [Q23P] it was 2.57; in that of KLAEAYLNLGPALSAALASSQKAH [Q23A], 3.15; in that of KLAEAYLNLGPALSAALASSQCQH [K22C], 3.44. On to KLAEAYLNLGPALSAALASSQTQH [K22T], for which the protein stability index was 4.43. With KLAEAYLNLGPALSAALASSQHQH [K22H], the protein stability index was found to be 2.52. In the case of KLAEAYLNLGPALSAALASSQAQH [K22A] it was 2.91; in that of KLAEAYLNLGPALSAALASSQPQH [K22P], 4.17; in that of KLAEAYLNLGPALSAALASSQNQH [K22N], 1.83. KLAEAYLNLGPALSAALASSQMQH [K22M]: the protein stability index stood at 2.41. As for KLAEAYLNLGPALSAALASSQQQH [K22Q], the protein stability index came to 2.76. In the case of KLAEAYLNLGPALSAALASSQWQH [K22W] it was 4.77; in that of KLAEAYLNLGPALSAALASSQSQH [K22S], 3.07; in that of KLAEAYLNLGPALSAALASSQFQH [K22F], 2.69. In the case of KLAEAYLNLGPALSAALASSQEQH [K22E] it was 4.71.
